# Experimental data reported in patent US20220227830A1, “QD DOSING OF GIP RECEPTOR AGONIST PEPTIDE COMPOUNDS AND USES THEREOF” (Takeda Pharmaceutical Company Limited, priority 2020, published 2022).
# Starred links: 1 amine or outer side, 2 acyl side, 3 side chain; linkers in the order of their positions; H or OH if unused. Non-standard residues stand in square brackets, D forms with d. Groups on a side chain read outwards from the residue. No end group written: not given here. *: point of attachment. G2E3 = linker of 2 Gly and 3 Glu (read GGEEE); C16 diacid = O=C(O)CCCCCCCCCCCCCCC(=O)*; C15 diacid = O=C(O)CCCCCCCCCCCCCC(=O)*; γGlu = O=C(O)[C@H](CCC(=O)[*:2])N[*:1]; NMeY = CN[C@@H](Cc1ccc(O)cc1)C(=O)O; AEEA = NCCOCCOCC(=O)O; Aib = CC(C)(N)C(=O)O
# B1: Compound 129 (peptide)
# peptide: [NMeY][Aib]EGTFISDYSI[Aib]K([AEEA-AEEA-γGlu-C15 diacid])DR[Aib]AQ[Aib]DFVNWLLAQSPSSGAPPPS-NH2
# modifications: N-terminus assumed
# SMILES: CC[C@H](C)[C@H](NC(=O)[C@H](Cc1ccccc1)NC(=O)[C@@H](NC(=O)CNC(=O)[C@H](CCC(=O)O)NC(=O)C(C)(C)NC(=O)[C@H](Cc1ccc(O)cc1)NC)[C@@H](C)O)C(=O)N[C@@H](CO)C(=O)N[C@@H](CC(=O)O)C(=O)N[C@@H](Cc1ccc(O)cc1)C(=O)N[C@@H](CO)C(=O)N[C@H](C(=O)NC(C)(C)C(=O)N[C@@H](CCCCNC(=O)COCCOCCNC(=O)COCCOCCNC(=O)CC[C@H](NC(=O)CCCCCCCCCCCCCC(=O)O)C(=O)O)C(=O)N[C@@H](CC(=O)O)C(=O)N[C@@H](CCCNC(=N)N)C(=O)NC(C)(C)C(=O)N[C@@H](C)C(=O)N[C@@H](CCC(N)=O)C(=O)NC(C)(C)C(=O)N[C@@H](CC(=O)O)C(=O)N[C@@H](Cc1ccccc1)C(=O)N[C@H](C(=O)N[C@@H](CC(N)=O)C(=O)N[C@@H](Cc1c[nH]c2ccccc12)C(=O)N[C@@H](CC(C)C)C(=O)N[C@@H](CC(C)C)C(=O)N[C@@H](C)C(=O)N[C@@H](CCC(N)=O)C(=O)N[C@@H](CO)C(=O)N1CCC[C@H]1C(=O)N[C@@H](CO)C(=O)N[C@@H](CO)C(=O)NCC(=O)N[C@@H](C)C(=O)N1CCC[C@H]1C(=O)N1CCC[C@H]1C(=O)N1CCC[C@H]1C(=O)N[C@@H](CO)C(N)=O)C(C)C)[C@@H](C)CC
# B2: Compound 151 (peptide)
# peptide: Me-Y[Aib]EGTFISDYSIAKDR[Aib]AQ[Aib]DFVNWLLAQSPSSGAPPPS-NH2
# modifications: not fully specified (residues 1, 14)
# B3: Compound 145 (peptide)
# peptide: [NMeY][Aib]EGTFISDYSI[Aib]LDRK([AEEA-AEEA-γGlu-γGlu-C16 diacid])AQ[Aib]NFVNWLLAQRPSSGAPPPS-NH2
# B4: Compound 146 (peptide)
# peptide: Me-Y[Aib]EGTFISDYSIAKDR[Aib]AQ[Aib]DFVNWLLAQRPSSGAPPPS-OH
# modifications: not fully specified (residues 1, 14)
# B5: Compound 149 (peptide)
# peptide: Me-Y[Aib]EGTFISDYSIALDR[Aib]AQ[Aib]K([AEEA-AEEA-γGlu-γGlu-C15 diacid])FVNWLLAQSG-OH
# B6: Compound 138 (peptide)
# peptide: Me-Y[Aib]EGTFISDYSI[Aib]K([G2E3-C15 diacid])DR[Aib]AQ[Aib]NFVNWLLAQRPSSGAPPPS-NH2
# B7: Compound 139 (peptide)
# peptide: Me-Y[Aib]EGTFISDYSI[Aib]K([AEEA-AEEA-γGlu-γGlu-C15 diacid])DR[Aib]AQ[Aib]NFVNWLLAQSPSSGAPPPS-NH2
# B8: Compound 135 (peptide)
# peptide: [NMeY][Aib]EGTFISDYSI[Aib]LDRK([AEEA-AEEA-γGlu-γGlu-C15 diacid])AQ[Aib]NFVNWLLAQRGGGGS-NH2
# B9: Compound 131 (peptide)
# peptide: [NMeY][Aib]EGTFISDYSIALDRK([Gly-Gly-Gly-Gly-Gly-γGlu-C15 diacid])AQ[Aib]NFVNWLLAQSPSSGAPPPS-NH2
# modifications: N-terminus assumed
# SMILES: CC[C@H](C)[C@H](NC(=O)[C@H](CO)NC(=O)[C@H](Cc1ccc(O)cc1)NC(=O)[C@H](CC(=O)O)NC(=O)[C@H](CO)NC(=O)[C@@H](NC(=O)[C@H](Cc1ccccc1)NC(=O)[C@@H](NC(=O)CNC(=O)[C@H](CCC(=O)O)NC(=O)C(C)(C)NC(=O)[C@H](Cc1ccc(O)cc1)NC)[C@@H](C)O)[C@@H](C)CC)C(=O)N[C@@H](C)C(=O)N[C@@H](CC(C)C)C(=O)N[C@@H](CC(=O)O)C(=O)N[C@@H](CCCNC(=N)N)C(=O)N[C@@H](CCCCNC(=O)CNC(=O)CNC(=O)CNC(=O)CNC(=O)CNC(=O)CC[C@H](NC(=O)CCCCCCCCCCCCCC(=O)O)C(=O)O)C(=O)N[C@@H](C)C(=O)N[C@@H](CCC(N)=O)C(=O)NC(C)(C)C(=O)N[C@@H](CC(N)=O)C(=O)N[C@@H](Cc1ccccc1)C(=O)N[C@H](C(=O)N[C@@H](CC(N)=O)C(=O)N[C@@H](Cc1c[nH]c2ccccc12)C(=O)N[C@@H](CC(C)C)C(=O)N[C@@H](CC(C)C)C(=O)N[C@@H](C)C(=O)N[C@@H](CCC(N)=O)C(=O)N[C@@H](CO)C(=O)N1CCC[C@H]1C(=O)N[C@@H](CO)C(=O)N[C@@H](CO)C(=O)NCC(=O)N[C@@H](C)C(=O)N1CCC[C@H]1C(=O)N1CCC[C@H]1C(=O)N1CCC[C@H]1C(=O)N[C@@H](CO)C(N)=O)C(C)C
# B10: Compound 141 (peptide)
# peptide: Me-Y[Aib]EGTFISDYSI[Aib]KDR[Aib]AQ[Aib]DFVNWLLAQSG-OH
# modifications: not fully specified (residues 1, 14)
# B11: Compound 132 (peptide)
# peptide: [NMeY][Aib]EGTFISDYSIALDRK([G5-γGlu-C15DA])AQ[Aib]DFVNWLLAQSPSSGAPPPS-NH2
# B12: Compound 147 (peptide)
# peptide: Me-Y[Aib]EGTFISDYSIAKDR[Aib]AQ[Aib]NFVNWLLAQRPSSGAPPPS-OH
# modifications: not fully specified (residues 1, 14)
# B13: Compound 134 (peptide)
# peptide: [NMeY][Aib]EGTFISDYSI[Aib]KDR[Aib]AQ[Aib]NFVNWLLAQRGGGGS-NH2
# modifications: not fully specified (residue 14)
# B14: Compound 150 (peptide)
# peptide: Me-Y[Aib]EGTFISDYSIAKDR[Aib]AQ[Aib]NFVNWLLAQSPSSGAPPPS-OH
# modifications: not fully specified (residues 1, 14)
# B15: Compound 136 (peptide)
# peptide: Me-Y[Aib]EGTFISDYSI[Aib]LDR[Aib]AQ[Aib]NFVNWLLAQK([AEEA-AEEA-γGlu-γGlu-C15 diacid])GGGGS-NH2
# B16: Compound 12 (peptide)
# peptide: [NMeY][Aib]EGTFISDYSIALDR[Aib]HQ[Aib]K([AEEA-AEEA-γGlu-C15 diacid])FVNWLLAQK-OH
# modifications: N-terminus assumed
# SMILES: CC[C@H](C)[C@H](NC(=O)[C@H](CO)NC(=O)[C@H](Cc1ccc(O)cc1)NC(=O)[C@H](CC(=O)O)NC(=O)[C@H](CO)NC(=O)[C@@H](NC(=O)[C@H](Cc1ccccc1)NC(=O)[C@@H](NC(=O)CNC(=O)[C@H](CCC(=O)O)NC(=O)C(C)(C)NC(=O)[C@H](Cc1ccc(O)cc1)NC)[C@@H](C)O)[C@@H](C)CC)C(=O)N[C@@H](C)C(=O)N[C@@H](CC(C)C)C(=O)N[C@@H](CC(=O)O)C(=O)N[C@@H](CCCNC(=N)N)C(=O)NC(C)(C)C(=O)N[C@@H](Cc1c[nH]cn1)C(=O)N[C@@H](CCC(N)=O)C(=O)NC(C)(C)C(=O)N[C@@H](CCCCNC(=O)COCCOCCNC(=O)COCCOCCNC(=O)CC[C@H](NC(=O)CCCCCCCCCCCCCC(=O)O)C(=O)O)C(=O)N[C@@H](Cc1ccccc1)C(=O)N[C@H](C(=O)N[C@@H](CC(N)=O)C(=O)N[C@@H](Cc1c[nH]c2ccccc12)C(=O)N[C@@H](CC(C)C)C(=O)N[C@@H](CC(C)C)C(=O)N[C@@H](C)C(=O)N[C@@H](CCC(N)=O)C(=O)N[C@@H](CCCCN)C(=O)O)C(C)C
# B17: Compound 130 (peptide)
# peptide: [NMeY][Aib]EGTFISDYSIALDR[Aib]AQ[Aib]KFVNWLLAQRPSSGAPPPS-NH2
# modifications: not fully specified (residue 21)
# B18: Compound 133 (peptide)
# peptide: [NMeY][Aib]EGTFISDYSIALDR[Aib]KQ[Aib]NFVNWLLAQSGGGGS-NH2
# modifications: not fully specified (residue 18)
# B19: Compound 137 (peptide)
# peptide: [NMeY][Aib]EGTFISDYSIALDRK([Gly-Gly-Gly-Gly-Gly-γGlu-C15 diacid])AQ[Aib]DFVNWLLAQRPSSGAPPPS-NH2
# B20: Compound 140 (peptide)
# peptide: Me-Y[Aib]EGTFISDYSI[Aib]KDR[Aib]AQ[Aib]DFVNWLLAQSPSSGAPPPS-NH2
# modifications: not fully specified (residues 1, 14)
# Key:
# [1] = biological target: full-length human GLP-1R with an N-terminal FLAG tag (human, UniProt P43220 24-463); assay: cell-based or functional assay
# [2] = biological target: T1, full-length human GIPR with an N-terminal FLAG tag (human, UniProt P48546 22-466); assay: cell-based or functional assay
# T1 sequence (looked up): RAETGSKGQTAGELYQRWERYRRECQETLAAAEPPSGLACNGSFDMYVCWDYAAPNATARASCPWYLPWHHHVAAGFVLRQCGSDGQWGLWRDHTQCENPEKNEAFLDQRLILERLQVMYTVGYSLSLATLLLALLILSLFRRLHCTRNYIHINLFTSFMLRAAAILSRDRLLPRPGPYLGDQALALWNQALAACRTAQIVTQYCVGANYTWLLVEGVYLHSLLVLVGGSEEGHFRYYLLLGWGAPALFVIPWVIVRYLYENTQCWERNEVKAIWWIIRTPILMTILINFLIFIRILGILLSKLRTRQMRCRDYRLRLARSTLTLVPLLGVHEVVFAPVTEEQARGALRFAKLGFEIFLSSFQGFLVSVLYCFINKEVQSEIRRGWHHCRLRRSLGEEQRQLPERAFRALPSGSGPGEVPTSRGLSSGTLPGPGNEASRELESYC
Binder,Human GLP1R cAMP HEK293T EC50 [1] [nM],"Human GIPR cAMP, HEK293T EC50 [2] [nM]"
B1,1000,0.0005
B2,145,0.0004
B3,912,0.0004
B4,112,0.0005
B5,25.7,0.0007
B6,1000,0.0004
B7,1000,0.0004
B8,646,0.0005
B9,75.9,0.0003
B10,64.6,0.0003
B11,21.9,0.0001
B12,16.6,0.0011
B13,1000,0.0004
B14,30.2,0.0003
B15,407,0.0009
B16,363,0.0002
B17,91.2,0.0004
B18,1000,0.0005
B19,479,0.0002
B20,178,0.0004
